Assay results as given in patent US20120003668A1, “HIGH RESOLUTION COMPLEX STRUCTURE AND ALLOSTERIC EFFECTS OF LOW MOLECULAR WEIGHT ACTIVATORS ON THE PROTEIN KINASE PDK1” (UNIVERSITAET DES SAARLANDES, priority 2008, published 2012).
Entries after “also recorded” stand apart in the source; their conditions may differ. Non-standard residues stand in square brackets, D forms with d. Residues, ends and D or L forms follow the SMILES beside them. *: point of attachment. Biotin = O=C1N[C@H]2[C@H](CS[C@H]2CCCCC(=O)*)N1; pT = C[C@@H](OP(=O)(O)O)[C@H](N)C(=O)O; pS = N[C@@H](COP(=O)(O)O)C(=O)O

T1: PDK1 CD wt (Homo sapiens, UniProt O15530)
T1 construct: PDK1 CD (50-359), wt (0.35 μM), PDK1 [Phe224Trp] or PDK1 [Thr226Trp] were injected onto the system; GST (N); made in house; host or cells: insect cells
T1 sequence (O15530 50-359): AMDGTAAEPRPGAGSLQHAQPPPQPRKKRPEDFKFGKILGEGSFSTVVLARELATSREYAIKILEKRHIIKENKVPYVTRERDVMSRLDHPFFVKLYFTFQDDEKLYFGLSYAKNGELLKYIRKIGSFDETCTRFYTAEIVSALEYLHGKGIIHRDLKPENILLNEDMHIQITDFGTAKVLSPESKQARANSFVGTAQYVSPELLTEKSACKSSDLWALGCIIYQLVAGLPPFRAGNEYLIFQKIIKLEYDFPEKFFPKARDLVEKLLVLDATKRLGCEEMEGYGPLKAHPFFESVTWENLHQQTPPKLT

T2: PDK1 catalytic domain (Homo sapiens, UniProt O15530)
T2 construct: The catalytic domain (CD) of PDK1 50-359 and its mutants
T2 sequence (O15530 50-359): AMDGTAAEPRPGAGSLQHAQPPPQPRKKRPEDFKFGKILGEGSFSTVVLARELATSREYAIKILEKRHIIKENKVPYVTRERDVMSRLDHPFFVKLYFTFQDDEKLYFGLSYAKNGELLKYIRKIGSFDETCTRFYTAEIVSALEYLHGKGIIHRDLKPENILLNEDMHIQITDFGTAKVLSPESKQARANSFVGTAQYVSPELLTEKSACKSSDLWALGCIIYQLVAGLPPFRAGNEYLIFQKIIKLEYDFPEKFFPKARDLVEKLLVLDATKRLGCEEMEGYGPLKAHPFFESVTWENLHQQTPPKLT

T3: biotin-PIFtide (biotin (position not given))
T3 construct: Biotinylated PIFtide
T3 peptide: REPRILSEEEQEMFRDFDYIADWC

T4: PIFtide
T4 chain: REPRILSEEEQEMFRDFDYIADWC


Assays:
PDK1 = PDK1 protein kinase activity test with T308tide substrate; type: biochemical, human
Protocol: In brief, PDK1 activity assay was performed at room temperature (22° C.) in a 20 μl mix containing 50 mM Tris pH 7.5, 0.05 mg/ml BSA, 0.1% β-mercaptoethanol, 10 mM MgCl2, 100 μM [γ^32P]ATP (5-50 cpm/pmol), 0.003% Brij, 150 ng PDK1, and T308tide (from 0.1 to 1 mM). […] Experiments were repeated at least twice.

PDK1 CD wt = biological target: T1, PDK1 CD wt; experiment: Surface plasmon resonance (BiaCore) on biotin-P-HM-S6K chip; type: binding; details: estimated from response units at equilibrium; read-out: Kd of direct binding of PDK1 CD wt to immobilized peptide
Protocol: Surface Plasmon resonance (BiaCore) and alpha-screen interaction and displacement assays: Binding of GST-PDK1 to a P-HM-polypeptide derived from S6K1 shown in FIG. 6 was analysed by surface plasmon resonance on a BiaCore 3000 system using a streptavidin-coated Sensor chip (SA) and biotin-P-HM-polypeptide, as previously described (Biondi, R. M. et al., Embo. J. 20:4380-4390 (2001). The interaction of His-PDK1 with biotin-PIFtide and the displacement by compounds shown in FIG. 3 was performed using the alpha-screen Ni-Chelate kit (Perkin Elmer) on an Envision 2104 multilabel system (Perkin Elmer).
BiaCore analysis was performed as described previously (Biondi, R. M. et al., Embo. J. 19:979-988 (2000)). […] Since both mutants were performed on the same construct of PDK1, their mass should be very similar and therefore should also produce 600RU when all biotin-(P)HM-S6K polypeptides on the same chip are bound to the mutant PDK1 proteins. Unfortunately, when mutant PDK1 Phe224Trp and PDK1 Thr226Trp were analysed, the injection of the mutants at concentrations higher than 1.3 μM prompted unspecific effects, therefore making difficult the evaluation. […]

PDK1 catalytic domain = biological target: T2, PDK1 catalytic domain; experiment: TNP-ATP fluorescence probing of the ATP binding site conformation; type: biochemical; details: 40 μM TNP-ATP, 15 μM PDK1 catalytic domain
Text: Probing the conformation of the ATP binding site in PDK1: The activation of PDK1 by HM-polypeptides and small compounds is due to a change in the conformation of the enzyme. We probed the conformation of the ATP binding site in PDK1 by scanning the steady-state fluorescence of TNP-ATP/PDK1, in the presence or absence of P-HM-polypeptides, PIFtide, or small molecular weight compounds. Data were obtained in a Varian Cary Eclipse spectrofluorometer (excitation λ=479 nm; emission scanning, λ=500-600 nm; excitation slit=10 nm; emission slit=10 nm) at a rate of 200 nm/min, with 150 datapoints/100 nm scanning and 0.3 s averaging time. The incubation was performed at 20° C. in a buffer containing 50 mM Tris pH 7.5, 0.1 mM EDTA, 187 mM NaCl, 40 μM TNP-ATP, 15 μM PDK1 catalytic domain, 1 mM DTT and 1% DMSO. In the absence of PDK1, TNP-ATP produced approximately 1.5 arbitrary units (a.u.) of fluorescence, and the inclusion of PDK1 increased its fluorescence intensity to approximately 3.3 a.u. […] In preliminary tests, inclusion of 2.5 mM MgCl2 in the assay mix produced similar results. Data for each condition are the average of 3 scans.

[1] = biological target: biotin-P-HM-polypeptide derived from S6K1; experiment: SPR (BiaCore), biotin-P-HM-S6K on streptavidin chip; mutant injected at 1.3 or 1.8 µM (which mutant at which concentration is not stated)
biotin-P-HM-polypeptide derived from S6K1, sequence (peptide, as listed by the source limits assumed): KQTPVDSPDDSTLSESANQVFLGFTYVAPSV

[2] = biological target: biotin-P-HM-polypeptide derived from S6K1; experiment: SPR (BiaCore), immobilised biotin-P-HM-S6K
[3] = biological target: biotin-P-HM-polypeptide derived from S6K1; experiment: SPR (BiaCore), biotin-P-HM-S6K chip; injected at 1.8 vs 1.3 µM
biotin-PIFtide = biological target: T3, biotin-PIFtide; experiment: SPR (BiaCore), immobilised biotin-PIFtide
PIFtide = biological target: T4, PIFtide
[4] = biological target: biotin-P-HM-polypeptide derived from S6K1; experiment: SPR (BiaCore 3000), biotin-P-HM-S6K on streptavidin chip, equilibrium responses
[5] = biological target: biotin-P-HM-polypeptide derived from S6K1; experiment: SPR (BiaCore 3000), biotin-P-HM-S6K on streptavidin chip

response units [1] | percent of maximal binding of the wild type protein [2] | response units [3] | percent of maximal binding of the wild type protein (biotin-PIFtide) | Molecule | PDK1 activity, T308tide as substrate (PIFtide) | stated: activates; PDK1 activity (%) with T308tide as substrate (PIFtide) | further results
 |  |  |  | KTFCGTPEYLAPEVRR [T308tide, polypeptide substrate of PDK1 derived from the PDK1 phosphorylation site on PKB] |  |  | Km (PDK1; estimated, 22° C.): > 10 mM
 |  |  |  | CC(C)C[C@H](NC(=O)[C@H](Cc1ccccc1)NC(=O)[C@@H](NC(=O)[C@H](CCC(N)=O)NC(=O)[C@H](CC(N)=O)NC(=O)[C@H](C)NC(=O)[C@H](CO)NC(=O)[C@H](CCC(=O)O)NC(=O)[C@H](CO)NC(=O)[C@H](CC(C)C)NC(=O)[C@@H](NC(=O)[C@H](CO)NC(=O)[C@H](CC(=O)O)NC(=O)[C@H](CC(=O)O)NC(=O)[C@@H]1CCCN1C(=O)[C@H](COP(=O)(O)O)NC(=O)[C@H](CC(=O)O)NC(=O)[C@@H](NC(=O)[C@@H]1CCCN1C(=O)[C@@H](NC(=O)[C@H](CCC(N)=O)NC(=O)[C@H](CCCCN)NC(=O)CCCC[C@@H]1SC[C@@H]2NC(=O)N[C@@H]21)[C@@H](C)O)C(C)C)[C@@H](C)O)C(C)C)C(=O)NCC(=O)N[C@@H](Cc1ccccc1)C(=O)N[C@H](C(=O)N[C@@H](Cc1ccc(O)cc1)C(=O)N[C@H](C(=O)N[C@@H](C)C(=O)N1CCC[C@H]1C(=O)N[C@@H](CO)C(=O)N[C@H](C(=O)O)C(C)C)C(C)C)[C@@H](C)OP(=O)(O)O [biotin-P-HM-S6K] (Biotin-KQTPVD[pS]PDDSTLSESANQVFLGF[pT]YVAPSV-OH; N-terminus and C-terminus assumed) |  |  | Kd (PDK1 CD wt): 500 nM
 |  |  |  | O=C(O)/C=C(\CCc1ccc(Br)cc1F)c1ccccc1 [PS133] |  |  | activation of PDK1 (PDK1; T308tide as substrate): nor did they activate PDK1; effect on TNP-ATP fluorescence intensity in the presence of PDK1 (PDK1 catalytic domain): did not produce any decrease; also recorded: did not affect
> 200 RU | 50% | 200 RU | ~50% | PDK1 CD (50-359) [Phe224Trp] (enzyme, also called PDK1[Phe224Trp]; PDK1 Phe224Trp) AMDGTAAEPRPGAGSLQHAQPPPQPRKKRPEDFKFGKILGEGSFSTVVLARELATSREYAIKILEKRHIIKENKVPYVTRERDVMSRLDHPFFVKLYFTFQDDEKLYFGLSYAKNGELLKYIRKIGSFDETCTRFYTAEIVSALEYLHGKGIIHRDLKPENILLNEDMHIQITDWGTAKVLSPESKQARANSFVGTAQYVSPELLTEKSACKSSDLWALGCIIYQLVAGLPPFRAGNEYLIFQKIIKLEYDFPEKFFPKARDLVEKLLVLDATKRLGCEEMEGYGPLKAHPFFESVTWENLHQQTPPKLT | the wild type protein and PDK1[Phe224Trp] were activated by PIFtide | The bar without PIFtide is at 100 %. The two hatched PIFtide bars (labelled 2.5 and 40 µM) are both between 440 and 480 %. | 
> 200 RU | 50% | 200 RU | ~50% | PDK1 CD (50-359) [Thr226Trp] (enzyme, also called PDK1[Thr226Trp]; PDK1 Thr226Trp) AMDGTAAEPRPGAGSLQHAQPPPQPRKKRPEDFKFGKILGEGSFSTVVLARELATSREYAIKILEKRHIIKENKVPYVTRERDVMSRLDHPFFVKLYFTFQDDEKLYFGLSYAKNGELLKYIRKIGSFDETCTRFYTAEIVSALEYLHGKGIIHRDLKPENILLNEDMHIQITDFGWAKVLSPESKQARANSFVGTAQYVSPELLTEKSACKSSDLWALGCIIYQLVAGLPPFRAGNEYLIFQKIIKLEYDFPEKFFPKARDLVEKLLVLDATKRLGCEEMEGYGPLKAHPFFESVTWENLHQQTPPKLT | PDK1[Thr226Trp] was not activated by PIFtide |  | stated: no activation; PDK1 activity (%) with T308tide as substrate (PIFtide): The bar without PIFtide is at 100 %. The two hatched PIFtide bars (labelled 2.5 and 40 µM) stay at about 100 %.
 | 50% |  | ~50% | PDK1 CD (50-359) wt (enzyme, also called PDK1 50-359; PDK1 CD wt) GPMDGTAAEPRPGAGSLQHAQPPPQPRKKRPEDFKFGKILGEGSFSTVVLARELATSREYAIKILEKRHIIKENKVPYVTRERDVMSRLDHPFFVKLYFTFQDDEKLYFGLSYAKNGELLKYIRKIGSFDETCTRFYTAEIVSALEYLHGKGIIHRDLKPENILLNEDMHIQITDFGTAKVLSPESKQARANSFVGTAQYVSPELLTEKSACKSSDLWALGCIIYQLVAGLPPFRAGNEYLIFQKIIKLEYDFPEKFFPKARDLVEKLLVLDATKRLGCEEMEGYGPLKAHPFFESVTWENLHQQTPPKLTA | the wild type protein and PDK1[Phe224Trp] were activated by PIFtide | The bar without PIFtide is at 100 %. The two hatched PIFtide bars (labelled 2.5 and 40 µM) are both between 350 and 400 %, with little difference between them. | Kd [4]: 500 nM; response units at maximum binding (PDK1 injected at 5.4 µM) [5]: 600 RU
